The subject of assay [1] is OVA. Type of assay: in vivo, Balb/c mice.
For assay [2], the system named is EG.7 cells. The assay can be described thus: Cytotoxic T lymphocyte (CTL) assay, 51Cr release, spleen cells of immunized mice. Type of assay: in vivo, C57BL/6 mice. The note with it: i.n. at 0, 7, 21 d, 10 μg OVA/immunization; spleen cells at 36-42 d; target EG.7 cells. Here is the method:
For conducting cytotoxic (cytotolytic) T Lymphocyte (CTL) assays, EL-4 and EG.7 (subclone of EL-4 that has been stably transfected with the gene encoding for OVA expression), cell lines were obtained from the American Type Culture Collection (ATCC, Manassas, Va., USA). Both cell lines were maintained in RPMI 1640 medium (Life Technologies, Grand Island, N.Y.) supplemented with 8% fetal bovine serum (FBS, Invitrogen Canada, Inc., Burlington, Ontario, Canada), except that 400 μg/ml G418 supplement (Invitrogen Canada Inc.) was also added for maintaining the EG.7 cell line. All cells were cultured at 37° C. in a humidified atmosphere of air containing 8% CO2. […]
After 5 days incubation (37° C., 8% CO2 in air), the cells were recovered, washed, and counted for use as effector cells for the CTL assay. […] The culture supernatants were collected and the released radioactivity in 70 μl aliquots for gamma counter or in 50 μl aliquots for beta counter, was measured after adding to 150 μl Optiphase Supermix^R scintillant (PerkinElmer LAS Canada, Inc., Woodbridge, Ontario, Canada). Percent specific cell lysis was calculated as 100×[(cpm experimental−cpm spontaneous)/cpm maximum−cpm spontaneous)]. […]

For assay [3], the system named is OVA. The assay can be described thus: Anti-OVA antibody responses (ELISA) in immunized C57BL/6 mice. The note with it: i.n. at 0, 7, 21 d, 10 μg OVA/immunization; 28 d.

B1: OVA/saline: OVA in saline, no adjuvant control (protein, UniProt P01012 2-386, looked up)
Ovalbumin: GSIGAASMEFCFDVFKELKVHHANENIFYCPIAIMSALAMVYLGAKDSTRTQINKVVRFDKLPGFGDSIEAQCGTSVNVHSSLRDILNQITKPNDVYSFSLASRLYAEERYPILPEYLQCVKELYRGGLEPINFQTAADQARELINSWVESQTNGIIRNVLQPSSVDSQTAMVLVNAIVFKGLWEKAFKDEDTQAMPFRVTEQESKPVQMMYQIGLFRVASMASEKMKILELPFASGTMSMLVLLPDEVSGLEQLESIINFEKLTEWTSSNVMEERKIKVYLPRMKMEEKYNLTSVLMAMGITDVFSSSANLSGISSAESLKISQAVHAAHAEINEAGREVVGSAEAGVDAASVSEEFRADHPFLFCIKHIATNAVLFFGRCVSP
On to B1, for which the “anti-OVA IgA responses” value in assay [1] (mouse, in vivo) is given as “negligible to not measurable”. Further, in assay [2], the “CTL response, specific cell lysis” value was “no CTL response”. In assay [3], the “anti-OVA IgA responses in fecal, vaginal wash and serum samples” value was “Little to no measurable”; the “serum IgG, IgG1 and IgG2a responses” value is recorded as “measurable, but smaller”.

B2: OVA/CaCl2: OVA in saline supplemented with 15 mM CaCl2, no adjuvant group (protein, UniProt P01012 2-386, looked up)
Ovalbumin: B1 Ovalbumin
In the case of B2, the “anti-OVA IgA antibody responses (fecal, vaginal, nasal, bile, serum)” value in assay [1] (28 d) is listed as “little or no measurable”.

Values taken from patent publication US8758763B2, “Archaeal polar lipid aggregates for administration to animals” (National Research Council of Canada, priority 2006, dated 2014).
